The data set can be described thus: label from the status in PepcDB records.

On to “MAETTPKVKGHVVILPYPVQGHLNPMVQFAKRLVSKNVKVTIATTTYTASSITTPSLSVEPISDGFDFIPIGIPGFSVDTYSESFKLNGSETLTLLIEKFKSTDSPIDCLIYDSFLPWGLEVARSMELSAASFFTNNLTVCSVLRKFSNGDFPLPADPNSAPFRIRGLPSLSYDELPSFVGRHWLTHPEHGRVLLNQFPNHENADWLFVNGFEGLEETQDCENGESDAMKATLIGPMIPSAYLDDRMEDDKDYGASLLKPISKECMEWLETKQAQSVAFVSFGSFGILFEKQLAEVAIALQESDLNFLWVIKEAHIAKLPEGFVESTKDRALLVSWCNQLEVLAHESIGCFLTHCGWNSTLEGLSLGVPMVGVPQWSDQMNDAKFVEEVWKVGYRAKEEAGEVIVKSEELVRCLKGVMEGESSVKIRESSKKWKDLAVKAMSEGGSSDRSINEFIESLGK”, for which the protein production entry is recorded as “failed”.
For “MAFAPRYSSLIPCALALAASLAGTPDGARAQAPDGPKHPLEKPLAHPPAPPEKLPRVPTDRTKGLDFLFGALKAAPDETSAKHVEGRIWALWSQTTSDTTALLMARSKVAMDAKQFDVALKLLDAVVKLKPDYVEGWNRRATIYYLQNDYMHSLEDIEQVLAREPRHFGALAGLGMIMQELGDDKRALDAFRRALALNPHLDKVPDLVKTLSEKVEGRDI”, the protein production entry is reported as “failed”.
On to “MAFAYPKLSEPDTKGEYADGKYKTEGTATEDYTERFQEEIQKVADDNFPGKKNVHLPWKETKEGDIAFIFKNPKKKPILTDSRGKPLKEGTVIRGGSKIRIAGVIAAWEKGAKRGVSLWPDAVRVIKLSEGLEHHHHHH”, for which the protein production result is given as “failed”.
The result for “MAFESAGAGELFLLGRLLFGGVLAFMGLNHFQNAGQMAPYAEAKGLPAPVASVYGSGGLLLVSGVLVILGAYPVIAAGALATFLVASAVMMHNFWAVPDDQMQDEMTQFLKNIALAGGALSLLAVAGTSWPYTVGLSLF” reads “failed”; that for “MAFKVVISDKEKSVQMEVDPSESRGLIGLTIGDEFDGSIIGLSGYKLKITGGSDKNGFPMKKTVPGARRIRSLVSGGVGYKPRRDGERRRKTFRGNTISDDIVQINTVVIEKGEKPLEELLGADEELEHHHHHH”, “failed”; that for “MAFPEYSPAASAATFADLQIHPRVLRAIGDVGYESPTAIQAATIPALMAGSDVVGLAQTGTGKTAAFAIPMLSKIDITSKVPQALVLVPTRELALQVAEAFGRYGAYLSQLNVLPIYGGSSYAVQLAGLRRGAQVVVGTPGRVIDHLERATLDLSRVDFLVLDEADEMLTMGFADDVERILSETPEYKQVALFSATMPPAIRKLSAKYLHDPFEVTCKAKTAVAENISQSYIQVARKMDALTRVLEVEPFEAMIVFVRTKQATEEIAEKLRARGFSAAAISGDVPQAQRERTITALRDGDIDILVATDVAARGLDVERISHVLNYDIPHDTESYVHRIGRTGRAGRSGAALIFVSPRELHLLKAIEKATRQTLTEAQLPTVEDVNTQRVAKFADSITNALGGPGIELFRRLVEEYEREHDVPMADIAAALAVQCRGGEAFLMAPDPPLSRRNRDQRRDRPQRPKRRPDLTTYRVAVGKRHKIGPGAIVGAIANEGGLHRSDFGQIRIGPDFSLVELPAKLPRATLKKLAQTRISGVLIDLRPYRPPDAARRHNGGKPRRKHVG”, “failed”.
With “MAFQLHPRLQQDCIVLGNLPLCKVLLIKEDIGPWLILVPRIEELKEIHHMTDEQQIQFIKESSAVAQLLEDNFSPDKINIGALGNLVPQLHIHHIARFTTDVAWPGPVWGNTTGVIRAQSSQTQLVDLLRDKLSNISGFKRLEHHHHHH”, the protein production result is “not failed”.
As for “MAFRYEHQEPGSRVISGGRDHSNRLLERLGFTVIDGRPTTVEGERAWRLAVWSHLQLTEDLSQVPPGVLRAFGVYGGGQGIWMDKARTDAVHEGGITMGVLHTGAHYPDEISDNDVIYHYPTTGRGPGRDESEVAATKAAATLKLPIFVIAKPTPRSSVRIVRLAWVEGWEERSRIFLISFGDSRPEHLLTEDHSDNQPFSLTGNRSRSSRRNVRERPGQRRFKLRVFQRYGPRCPLSGIAVPEMIEAAHLRPDAEDGTDDPRNGLPLNAALHRAYDAYLFAIEPETLSVVTRPQGPTIEELGIFTPHLRELPRRPHTEALRWRYREWQLRIGTQG”, the protein production result is reported as “failed”.
On to “MAFTESDVYNNEAFFKQYMKRRYRENSPNELIEKPAFFQLIGDVKGKKILDLGCGDAIFGKELLEKDCHSYTGIEGSELMYEKAKKQLENKNGIVHFLNLKDYTYPPATFDLVTSRLALHYIEHLPIIFQNVYETLKTNGTFTFSVQHPVITSSFESLQTSGKRTSWLVDDYFKTGKRVEPWIDQKVIKYHRTTEEYFTLLQQAGFTITNLKEATPNQTYFQSAEEYERRLRIPLFLLFSCRKLEHHHHHH”, for which the protein production entry is given as “not failed”.
In the case of “MAGETPEQGEGRIISGRYRLLRTLGAGGMGRVWLAYDAELACEVAVKEIALPDLPIDASEPVQRIARARSEARNAARLRGHPHVATVHDVVVHEGLPWIVMEHVPDAIDLQAVVRRSGPLTPARTARIGVAVLDALTAGHRIGILHRDVKPANILLAPDASGDPYARVLLTDYGIALQPESREPRLTATAGILGTPGYLAPERARGEPPTPAADLFSLGATLYATVEGRGPFDRHGEYATLTALLGEEPTPPVRAGELGAVLHGLLIKDPVRRLAPEAVARGLEAVARAAPGEGFGPPPGWGSAPSVGQGFGPPPQGFGPPPDGFGPPSGTPSVSPPSAEGATTAPGAPGAPQVSAPGTPQTPGAPRTPHTPHTPQTPAGGPGTPPGSPSAYNPWRPTPPSGPYDPGNPYASSPSSPYAGTGAPAAYEGGPAYFPPRPSPRRKSAAALVALVVAAALVVTGGIWAALSLTGGPTGDGGGTTGQRAKKSPPVSGPQSTKPAGPVLPYGEQVGLTEPLQAGDCVRAVWSGAAFKSVPNLGVVDCADDWPDGQVVAVDTATDYADARDRGARRCAGQSQATADALPDAGVYAVAPTKEGFTAASGGTACLVLGRHAAIGGEVGRFRDTGTDLWVGQMSIGDCWIYKEEKDSYKAPLSDCAQPHTDQVIGAVSAPKNMDYKKGVDNGNKLCGNKFESSWAPGPARQVFGWVADKEDWNDGFDKVVCTVRRSDGAETSGKISAPGAV”, the protein production entry is “failed”.
Take “MAGFMKNAMSYLGMSDVAEGEDDFEDDVDTGETSFDSDHSVTPMPSSSASASTPSAPREQSNPFQGGRVSRITTIHPKTYDDAQMVGRAIRDGIPVVLNLTGVAEAVAYRIVDFSAGVVFGVRGSIERVTPRVFLLSPAQVNIKVEEPEDKGPAHDLFAD”: the protein production result was “failed”.
As to “MAGGAVSKGNVIVGLFRKRTSLLITSILLGLIGLPSLGVLDIGNLARAEKAATNAPSPTTPDIKPSELKPAYPASAPPPRVDPLPDERDMQERVVEIDYRVSNLLGDFAGNLWVGSWRGLSRIDPKTGKILARVSLPNVAIGALAQDKVGRLWVGTYEGLKRVEPRTNEISAQNLFLPSKRVLSLLTDKRGYLWVGTDNGLALVSPDQGLIMTTVKNLPGVSGNTLTLDADGQLWTGTLDGVVRINTASALIMKRINDLPGTTVQALAISPEGLIWAGMPNNLLVINPKTGVVLRSVTRLRGRNVTAVRFAKDGSVWVGTHNGLLRLNPNTGAVLDEVAGLPSSRVLSLMPDVANKLWIGTSEGLAWLMPKMDKAKPHLAFSRLVK”, the protein production result is “failed”.
For “MAGMDNLIAIAAAMLYLLSIATIVPGLVNQTGIRAKTVFISAAIALLFHGWLLSDLILHSSGQNLSILNVASLISFIISLAMSLAMFKTRLWFLLPVAYSFSAINLSAATFLPGTFITHLESDPKLLLHISLALFSYSTLSIGALYALQLAWLDHKLKSKKVFSINPNLPPLLLVERQLFKIILIGNLLLTGTLLTGFIFVQDMFAQGKAHKGILSFVAWIVYSILLWGHYRKGWRGKKVTWFAVAGATLLTLAYFGSRFVREIILR” the value was “failed”; for “MAGNFWQSSHYLQWILDKQDLLKERQKDLKFLSEEEYWKLQIFFTNVIQALGEHLKLRQQVIATATVYFKRFYARYSLKSIDPVLMAPTCVFLASKVEEFGVVSNTRLIAAATSVLKTRFSYAFPKEFPYRMNHILECEFYLLELMDCCLIVYHPYRPLLQYVQDMGQEDMLLPLAWRIVNDTYRTDLCLLYPPFMIALACLHVACVVQQKDARQWFAELSVDMEKILEIIRVILKLYEQWKNFDERKEMATILSKMPKPKPPPNSEGEQGPNGSQNSSYSQS”, “not failed”.
On to “MAGPTLLKESGPREVFCGLTSIVWLHRRMPDAFFLVVGSRTCAHLIQSAAGVMIFAEPRFGTAILSERDLAGLADAHEELDRVARELLQRRPEIRTLFLVGSCPSEVIKLDLARAAERLNDELQGRVRVVNYSGSGIETTFTQGEDGALAALVPLLPSSAERQLLLVGTLADAVEDRLIHLFGRLGIDRVRSLPPRQSTALPPVGPGTTVLLTQPFLTDTARLLRNRGATVLTAPFPLGAEGSRRWMEAAAQAFEVAPSHVATVLDPLMERARIALEPHREVLAGKRIFLLPESQLELPLARFLQRECGMELVEVGTPYLNREQMAEELALLPEGTPVMEGQHVELQLDRVRDSAPDLVVCGMGLANPLEAEGIATKWSIELVFSPIHGIDQAGDLAELFSRPLRRRQLIHPGLHPTQPDQPVHA”, for which the protein production result is reported as “failed”.
For “MAGRVHPRQLAFSLPHAESLSRDNFLEGPANAAGLALIDGWPEWPNRIMWLAGPEGSGKSHLAAIWAEEAGARSTTANALSAAGVPGALATGALVVEDLKAKDFDERALFHLMNLAREDGAYVLFTGRDVPAALDIELNDLRSRLRAVPVVMLLPPDDQLFRGLIVKFCADRQLTVDESVVSYLATRLERSSAAARQAVELLDSEALRLGRPVTRALAAELLRDALEHHHHHH” the value was “not failed”; for “MAGSGVPSHRSMVIKVSVFAVVMLLVAAGLVVVFGDFRFGPTTVYHATFTDASRLKAGQKVRIAGVPVGSVKAVKLNPDHSIDVAFAIDRSYTLYSSTRAVIRYENLVGDRFLEITSGPGELRKLPPGGTINVAHTQPALDLDALLGGLRPVLKGFDADKINTITSAVIELLQGQGGPLANVLADTGAFSAALGARDQLIGEVITNLNAVLATVDAKSAQFSASVDQLQQLVSGLAKNRDPIAGAISPLASTTTDLTELLRNSRRPLQGILENARPLATELDNRKAEVNNDIEQLGEDYLRLSALGSYGAFFNIYFCSVTIKINGPAGSDILLPIGGQPDPSKGRCAFAK”, “failed”.
Consider “MAGTNSERELLTEGPAIILAFPQLGENIGMVARAMANFGLSELRLVSPRDGWPSEKARSAASRADHVIDGAKLYETLEEALADLNFVYATTARDRDGFKPVRSPIVAARELRHRFKEGEKVGIIFGRERTGLTNAEVALADEIVTFPVNPAFASLNLAQAVLLMSYEWLKTGMTSEDETSFQASQQRPATKEQLHGLCEHLEEA”, for which the protein production entry is “failed”.
The result for “MAGVITGFAIILSVIGVGFLLAKLGVINDDKQRLVLNRIAFYAATPALLFNVVARSDPSALISPVIVVTFVATIVTAAVYCVISAIFFKKDIATTATGAAASAYVNSNNIGLPVSIYVLGTGAYVAPILVMQMVIFAPMILAALTSGDVKGSRGQKIWAAVKGSLLSPIVLASIAGLIVCLLEIQLPAAVMEPTIILGGASIPLILMSFGASLPSTNVLASKADRPSVLTATAIKIVGMPAITWLIAKAFGLEGDYLYAAVILAALPAAQNVYNYAATYRKGEIVARDTVFLTTFLALLGMLGIAALFGR” reads “not failed”.
As to “MAHFSARLKLLSSNDGLSFGVDSRDQFRQSLYMAGGGSPLVPIRMSRLKFCARIFSSYSFPYKRKKIRDLDNTEKNLDIDEDNDEWDFDGDDDGLETDDHLSCFRGLVLDISYRPVNVVCWKRAICLEYMDKADVLEYYDQTVSSPTGSFYIPAVLRVPHLLQVVKRRRVKNSLSRKNILLRDDYTCQYCSSRENLTIDHVMPVSRGGEWTWQNLVAACSRCNSRKGQKTADEAHMKLLKVPKEPKDYDIVAIPLTNAAIRMLRSNKGMPEEWRQYLAKPLSET”, the protein production result is recorded as “failed”.

Source of the values: a protein production outcome set (Wang et al. 2014).
